Source: patent US20030082150A1

Key:
[1] = target: Mage-1 antigenic nonapeptide presented by the HLA.A1 molecule on cells (human) (UniProt P43355); assay: cell-based or functional assay
[2] = target: HLA.A1 molecule on cells that do not express the antigen MAGE-1 (infected with control adenovirus Ad-βgal) (human); assay: cell-based or functional assay

In the case of “T cell receptor of the anti-Mage-1 CTL clone 82:30 (TCR)”, the % lysis, 51Cr release 4 h, E/T 0.1, C1R infected Ad Mage-1 (500 pfu/cell) [1] is reported as 28%, the % lysis, 51Cr release 4 h, E/T 0.1, C1R transfected with Mage-1 [1] is reported as 19% and the % lysis, 51Cr release 4 h, E/T 0.1, Gerlach E- infected Ad Mage-1 (500 pfu/cell) [1] is reported as 2%. For the same sequence, the % lysis, 51Cr release 4 h, E/T 0.3, C1R infected Ad Mage-1 (500 pfu/cell) [1] was 44%, the % lysis, 51Cr release 4 h, E/T 0.3, C1R transfected with Mage-1 [1] was 25% and the % lysis, 51Cr release 4 h, E/T 0.3, Gerlach E- infected Ad Mage-1 (500 pfu/cell) [1] was 5%. It also gave a % lysis, 51Cr release 4 h, E/T 1, C1R infected Ad Mage-1 (500 pfu/cell) [1] of 44%, a % lysis, 51Cr release 4 h, E/T 1, C1R transfected with Mage-1 [1] of 30% and a % lysis, 51Cr release 4 h, E/T 1, Gerlach E- infected Ad Mage-1 (500 pfu/cell) [1] of 6%. It also gave a % lysis, 51Cr release 4 h, E/T 3, C1R infected Ad Mage-1 (500 pfu/cell) [1] of 61%, a % lysis, 51Cr release 4 h, E/T 3, C1R transfected with Mage-1 [1] of 45% and a % lysis, 51Cr release 4 h, E/T 3, Gerlach E- infected Ad Mage-1 (500 pfu/cell) [1] of 13%. The % lysis, 51Cr release 4 h, E/T 10, C1R infected Ad Mage-1 (500 pfu/cell) [1] was 59%, the % lysis, 51Cr release 4 h, E/T 10, C1R transfected with Mage-1 [1] was 40% and the % lysis, 51Cr release 4 h, E/T 10, Gerlach E- infected Ad Mage-1 (500 pfu/cell) [1] was 15%. It also gave a % lysis, 51Cr release 4 h, E/T 30, C1R infected Ad Mage-1 (500 pfu/cell) [1] of 62%, a % lysis, 51Cr release 4 h, E/T 30, C1R transfected with Mage-1 [1] of 33% and a % lysis, 51Cr release 4 h, E/T 30, Gerlach E- infected Ad Mage-1 (500 pfu/cell) [1] of 15%. The TNF produced by the CTL clone, +CTL, Gerlach E+ (HLA A1+) (Mage 1+) [1] was 45 pg TNF, the TNF produced by the CTL clone, +CTL, Gerlach E- infected with Ad. Mage 1, 50 pfu/cell [1] was 4 pg TNF and the TNF produced by the CTL clone, +CTL, Gerlach E- infected with Ad. Mage 1, 100 pfu/cell [1] was 12 pg TNF. It also gave an optical density (MTT, WEHI-164-13 viability) of 24 h supernatant, +CTL, Gerlach E+ (HLA A1+) (Mage 1+) (optical density) [1] of 0.17, an optical density (MTT, WEHI-164-13 viability) of 24 h supernatant, +CTL, Gerlach E- infected with Ad. Mage 1, 50 pfu/cell (optical density) [1] of 0.58 and an optical density (MTT, WEHI-164-13 viability) of 24 h supernatant, +CTL, Gerlach E- infected with Ad. Mage 1, 100 pfu/cell (optical density) [1] of 0.355. It also gave a % lysis, 51Cr release 4 h, E/T 0.1, C1R infected Ad β gal (500 pfu/cell) [2] of 2%, a % lysis, 51Cr release 4 h, E/T 0.1, Gerlach E- infected Ad β gal (500 pfu/cell) [2] of 2% and a % lysis, 51Cr release 4 h, E/T 0.3, C1R infected Ad β gal (500 pfu/cell) [2] of 1%. The % lysis, 51Cr release 4 h, E/T 0.3, Gerlach E- infected Ad β gal (500 pfu/cell) [2] was 0%, the % lysis, 51Cr release 4 h, E/T 1, C1R infected Ad β gal (500 pfu/cell) [2] was 3% and the % lysis, 51Cr release 4 h, E/T 1, Gerlach E- infected Ad β gal (500 pfu/cell) [2] was 0%. For the same sequence, the % lysis, 51Cr release 4 h, E/T 3, C1R infected Ad β gal (500 pfu/cell) [2] was 4%, the % lysis, 51Cr release 4 h, E/T 3, Gerlach E- infected Ad β gal (500 pfu/cell) [2] was 0% and the % lysis, 51Cr release 4 h, E/T 10, C1R infected Ad β gal (500 pfu/cell) [2] was 2%. For the same sequence, the % lysis, 51Cr release 4 h, E/T 10, Gerlach E- infected Ad β gal (500 pfu/cell) [2] was 0%, the % lysis, 51Cr release 4 h, E/T 30, C1R infected Ad β gal (500 pfu/cell) [2] was 3% and the % lysis, 51Cr release 4 h, E/T 30, Gerlach E- infected Ad β gal (500 pfu/cell) [2] was 0%. The TNF produced by the CTL clone, +CTL, Gerlach E- infected with Ad. βgal, 50 pfu/cell [2] was 0 pg TNF and the TNF produced by the CTL clone, +CTL, Gerlach E- infected with Ad. βgal, 100 pfu/cell [2] was 0 pg TNF.
